Results published in patent US20220251184A1 (Regeneron, published 2022).
Numbering of substitutions follows the chain as printed.

T1: human BMP6 (R&D Systems, Cat #507-BP) (human, UniProt P22004 375-513, limits assumed)
T1 construct: Bought protein (R&D Systems 507-BP or 507-BP/CF); also called hBMP6; hBMP-6
T1 sequence: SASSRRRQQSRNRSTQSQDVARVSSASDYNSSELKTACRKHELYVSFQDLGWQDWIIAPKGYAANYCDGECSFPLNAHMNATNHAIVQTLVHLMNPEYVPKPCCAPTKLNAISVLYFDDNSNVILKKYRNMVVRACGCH

T2: Human BMP12/GDF7 (human, UniProt Q7Z4P5 322-450, limits assumed)
T2 sequence (looked up): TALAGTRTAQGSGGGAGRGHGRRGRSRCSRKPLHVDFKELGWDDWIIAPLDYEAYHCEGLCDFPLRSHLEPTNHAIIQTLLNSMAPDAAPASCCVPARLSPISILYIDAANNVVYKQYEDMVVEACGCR

T3: Human GDF3 (human, UniProt Q9NR23 251-364)
T3 sequence (looked up): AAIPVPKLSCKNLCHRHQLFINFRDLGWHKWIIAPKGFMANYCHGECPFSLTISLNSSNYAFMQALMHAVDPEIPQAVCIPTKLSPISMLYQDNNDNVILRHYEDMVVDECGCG

B1: H4H17871P (antibody, V domains shown)
VH: EVQLVESGGGLVQPGGSLRLSCAASGFTFNNYAMSWVRQAPGKGLEWVSAISGSGDSTYYADSVKGRFTISRDNSKNTLYLQMNSLRAEDTAVYYCAKRSRSSPFDPWGQGTLVTVSS
VL: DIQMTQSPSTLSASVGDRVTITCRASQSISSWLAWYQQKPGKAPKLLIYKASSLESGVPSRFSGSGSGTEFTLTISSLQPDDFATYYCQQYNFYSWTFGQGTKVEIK
notes: Fully human antibody; also called anti-BMP6 monoclonal antibody; BMP6 antibody of the invention
B2: H4H17855P (antibody, V domains shown)
VH: B1 VH with N30S, N31S, D56G, S57R, A61T, I70M, S100P, R101Y, S102N
VL: EIVLTQSPGTLSLSPGEGATLSCRASQSVSSSYLAWYQQKPGQAPRLLIYGASSRATGIPDRFSGSGSGTDFTLTISRLEPEDFVVYYCQHFGGTPFTFGGGTKVEIK
notes: as for B1

Experiments:
[1] = target: T1, human BMP6 (R&D Systems, Cat #507-BP); experiment: SPR (MASS-1), mAb captured on anti-human Fc, hBMP6 in solution, 37 C; calculated with kd fixed at 1.00E-05
Method: Equilibrium dissociation constants (KD values) for human and mouse BMP6 binding to purified anti-BMP6 monoclonal antibodies of this invention were determined using a real-time surface plasmon resonance (SPR) biosensor instrument, MASS-1. All binding studies were performed in 10 mM HEPES, 150 mM NaCl, 3 mM EDTA, 1 μg/mL Heparin, and 0.05% v/v Surfactant Tween-20, pH 7.4 (HBS-EHT) running buffer at 25° C. and 37° C. The HCA sensor surface was first derivatized by amine coupling the monoclonal mouse anti-human Fc antibody (GE, #BR100839) and anti-BMP6 monoclonal antibodies were individually captured. Different concentrations of human BMP6 reagents (hBMP6; R&D Systems, Cat #507-BP; 60 nM-0.94 nM; 4-fold serial dilution) or mouse BMP6 (mBMP6; R&D Systems, Cat #6325-BM; 60 nM and 15 nM) prepared in HBS-EHT running buffer were injected over the captured anti-BMP6 monoclonal antibody for 4 minutes at a flow rate of 30 μL/minute, while the dissociation of BMP6 reagent bound to captured anti-BMP6 monoclonal antibody was monitored for 10 minutes in HBS-EHT running buffer. Kinetic association (kₐ) and dissociation (kd) rate constants were determined by fitting the real-time binding sensorgrams to a 1:1 binding model with mass transport limitation using Scrubber 2.0c software. […]

Human BMP12/GDF7 = target: T2, Human BMP12/GDF7; experiment: BLI (Octet HTX), mAb captured on Protein A sensor, 100 nM ligand, 25 C
Method: (§1) Binding cross-reactivity of anti-BMP6 monoclonal antibodies to BMP6 family members, (Human: BMP6, BMP5, BMP7, BMP8A, BMP9, BMP10, BMP12, BMP14, BMP3b, Activin A, and GDF3 and mouse: BMP6 and GDF6) was determined using a real-time Bio-Layer Interferometry (BLI) biosensor using Octet HTX instrument. All binding studies were performed in 10 mM HEPES, 150 mM NaCl, 3 mM EDTA, 1 mg/mL BSA, 50 μg/mL Heparin, and 0.05% v/v Surfactant Tween-20, pH 7.4 (HBS-EBHT) buffer at 25° C. with the plate shaking at a speed of 1000 rpm. To assess binding cross-reactivity, Protein A coated Octet biosensor (Pall ForteBio Corp., #18-5010) was first dipped in wells containing […] of anti-BMP6 monoclonal antibodies for 4 minutes followed by submerging in wells containing 100 nM of different BMP6 family members for 4 minutes. The biosensors were washed in HBS-EBHT buffer in between every step of the experiment. At the end of each cycle, the Protein A biosensor was regenerated using three alternate 5 second dips in 10 mM Glycine pH 2.0 and 10 second dip HBS-EBHT buffer. The real-time binding response was monitored during the course of the experiment and the binding response at the end of every step was recorded and tabulated as shown in Tables 8A and 8B.

[2] = target: T1, human BMP6 (R&D Systems, Cat #507-BP); experiment: competition ELISA, antibody titrated against 2.5 nM biot-hBMP6, plate-coated hHJV-hFc as competitor
Method: Experiments were carried out using the following procedure. Receptors were coated in Hank's Balanced Salt Solution (HBSS) separately at a concentration of 5 μg/mL for hHJV-hFc and […] for hActR2a-hFc on a 96-well microtiter plate overnight at 4° C. […] In other microtiter plates, a constant amount of 2.5 nM of biot-BMP6 (for HJV capture) or 1.5 nM biot-BMP6 (for ActR2a capture) protein was titrated with anti-BMP6 antibodies or isotype control antibodies ranging from 5.1 pM to 300 nM in serial dilution in HBSS with 1.0% BSA and […] heparin. These antibody-protein complexes, after a one-hour incubation, were transferred to the microtiter plate coated with hHJV-hFc or hActR2a-hFc. After two hours of incubation at room temperature, the wells were washed, and plate-bound biot-BMP6 was detected with neutravidin conjugated with horseradish peroxidase (HRP) (Thermo Scientific, Cat #31030). The plates were then developed using TMB substrate solution (BD Biosciences, Cat #555214) according to manufacturer's recommendation and absorbance at 450 nm was measured on a Victor X5 plate reader.
Data analysis was performed using a sigmoidal dose-response model within Prism™ software (GraphPad). […]

Human GDF3 = target: T3, Human GDF3; experiment: BLI (Octet HTX), mAb captured on Protein A sensor, 100 nM ligand, 25 C
Method: as §1

Row | Binder | Kd [1] | t1/2 [1] | binding response (Human BMP12/GDF7) | IC50 [2] | binding response (Human GDF3)
1 | B1 | ≤ 0.24 nM | ≥ 19.2 h | 0.01 nm | 1.61 nM | –
2 | B2 | – | – | – | – | 0.03 nm
